From paper PMC10135718, “Inhibitory Peptide of Soluble Guanylyl Cyclase/Trx1 Interface Blunts the Dual Redox Signaling Functions of the Complex” (Antioxidants, 2023)

B1: oxidized Trx1 (oTrx1) (enzyme, human, UniProt P10599 1-105, looked up)
chain: MVKQIESKTAFQEALDAAGDKLVVVDFSATWCGPCKMIKPFFHSLSEKYSNVIFLEVDVDDCQDVASECEVKCMPTFQFFKKGQKVGEFSGANKEKLEATINELV
modifications: thiols oxidized with 100 μM diamide (the cysteine engaged in the homodimer is not identified)
notes: Thioredoxin 1, human; same protein as m2, oxidized; mostly a dimer on a non-reducing gel; also used here for the endogenous Trx1 of Jurkat T cells in two functional rows; also called oxidized thioredoxin; source: bought: Fitzgerald industries (30R-2985); treated with 100 μM diamide on ice for 30 min, excess removed
B2: recombinant human Thioredoxin 1 (Trx1), untreated (enzyme, UniProt P10599 1-105, looked up)
chain: MVKQIESKTAFQEALDAAGDKLVVVDFSATWCGPCKMIKPFFHSLSEKYSNVIFLEVDVDDCQDVASECEVKCMPTFQFFKKGQKVGEFSGANKEKLEATINELV
notes: Thioredoxin 1, human; also called untreated Trx1; source: bought: Fitzgerald industries (30R-2985)
B3: oxidized GC1 (oGC1) (complex, human)
chain 1: MFCTKLKDLKITGECPFSLLAPGQVPNESSEEAAGSSESCKATVPICQDIPEKNIQESLPQRKTSRSRVYLHTLAESICKLIFPEFERLNVALQRTLAKHKIKESRKSLEREDFEKTIAEQAVAAGVPVEVIKESLGEEVFKICYEEDENILGVVGGTLKDFLNSFSTLLKQSSHCQEAGKRGRLEDASILCLDKEDDFLHVYYFFPKRTTSLILPGIIKAAAHVLYETEVEVSLMPPCFHNDCSEFVNQPYLLYSVHMKSTKPSLSPSKPQSSLVIPTSLFCKTFPFHFMFDKDMTILQFGNGIRRLMNRRDFQGKPNFEEYFEILTPKINQTFSGIMTMLNMQFVVRVRRWDNSVKKSSRVMDLKGQMIYIVESSAILFLGSPCVDRLEDFTGRGLYLSDIPIHNALRDVVLIGEQARAQDGLKKRLGKLKATLEQAHQALEEEKKKTVDLLCSIFPCEVAQQLWQGQVVQAKKFSNVTMLFSDIVGFTAICSQCSPLQVITMLNALYTRFDQQCGELDVYKVETIGDAYCVAGGLHKESDTHAVQIALMALKMMELSDEVMSPHGEPIKMRIGLHSGSVFAGVVGVKMPRYCLFGNNVTLANKFESCSVPRKINVSPTTYRLLKDCPGFVFTPRSREELPPNFPSEIPGICHFLDAYQQGTNSKPCFQKKDVEDGNANFLGKASGID
chain 2: MYGFVNHALELLVIRNYGPEVWEDIKKEAQLDEEGQFLVRIIYDDSKTYDLVAAASKVLNLNAGEILQMFGKMFFVFCQESGYDTILRVLGSNVREFLQNLDALHDHLATIYPGMRAPSFRCTDAEKGKGLILHYYSEREGLQDIVIGIIKTVAQQIHGTEIDMKVIQQRNEECDHTQFLIEEKESKEEDFYEDLDRFEENGTQESRISPYTFCKAFPFHIIFDRDLVVTQCGNAIYRVLPQLQPGNCSLLSVFSLVRPHIDISFHGILSHINTVFVLRSKEGLLDVEKLECEDELTGTEISCLRLKGQMIYLPEADSILFLCSPSVMNLDDLTRRGLYLSDIPLHDATRDLVLLGEQFREEYKLTQELEILTDRLQLTLRALEDEKKKTDTLLYSVLPPSVANELRHKRPVPAKRYDNVTILFSGIVGFNAFCSKHASGEGAMKIVNLLNDLYTRFDTLTDSRKNPFVYKVETVGDKYMTVSGLPEPCIHHARSICHLALDMMEIAGQVQVDGESVQITIGIHTGEVVTGVIGQRMPRYCLFGNTVNLTSRTETTGEKGKINVSEYTYRCLMSPENSDPQFHLEHRGPVSMKGKKEPMQVWFLSRKNTGTEETKQDDD
modifications: thiols oxidized with 100 μM diamide (cysteines not mapped) | thiols oxidized with 100 μM diamide (cysteines not mapped)
notes: alpha subunit of soluble guanylyl cyclase GC1, human; beta subunit of soluble guanylyl cyclase GC1, human; same protein as m1, oxidized; runs as high molecular weight multimers on a non-reducing gel; also called multimeric oxidized GC1; source: bought: Enzo life sciences (ALX-201-177-C010); treated with 100 μM diamide on ice for 30 min, excess removed
B4: purified recombinant human soluble guanylyl cyclase (GC1), untreated (complex)
chain 1: MFCTKLKDLKITGECPFSLLAPGQVPNESSEEAAGSSESCKATVPICQDIPEKNIQESLPQRKTSRSRVYLHTLAESICKLIFPEFERLNVALQRTLAKHKIKESRKSLEREDFEKTIAEQAVAAGVPVEVIKESLGEEVFKICYEEDENILGVVGGTLKDFLNSFSTLLKQSSHCQEAGKRGRLEDASILCLDKEDDFLHVYYFFPKRTTSLILPGIIKAAAHVLYETEVEVSLMPPCFHNDCSEFVNQPYLLYSVHMKSTKPSLSPSKPQSSLVIPTSLFCKTFPFHFMFDKDMTILQFGNGIRRLMNRRDFQGKPNFEEYFEILTPKINQTFSGIMTMLNMQFVVRVRRWDNSVKKSSRVMDLKGQMIYIVESSAILFLGSPCVDRLEDFTGRGLYLSDIPIHNALRDVVLIGEQARAQDGLKKRLGKLKATLEQAHQALEEEKKKTVDLLCSIFPCEVAQQLWQGQVVQAKKFSNVTMLFSDIVGFTAICSQCSPLQVITMLNALYTRFDQQCGELDVYKVETIGDAYCVAGGLHKESDTHAVQIALMALKMMELSDEVMSPHGEPIKMRIGLHSGSVFAGVVGVKMPRYCLFGNNVTLANKFESCSVPRKINVSPTTYRLLKDCPGFVFTPRSREELPPNFPSEIPGICHFLDAYQQGTNSKPCFQKKDVEDGNANFLGKASGID
chain 2: MYGFVNHALELLVIRNYGPEVWEDIKKEAQLDEEGQFLVRIIYDDSKTYDLVAAASKVLNLNAGEILQMFGKMFFVFCQESGYDTILRVLGSNVREFLQNLDALHDHLATIYPGMRAPSFRCTDAEKGKGLILHYYSEREGLQDIVIGIIKTVAQQIHGTEIDMKVIQQRNEECDHTQFLIEEKESKEEDFYEDLDRFEENGTQESRISPYTFCKAFPFHIIFDRDLVVTQCGNAIYRVLPQLQPGNCSLLSVFSLVRPHIDISFHGILSHINTVFVLRSKEGLLDVEKLECEDELTGTEISCLRLKGQMIYLPEADSILFLCSPSVMNLDDLTRRGLYLSDIPLHDATRDLVLLGEQFREEYKLTQELEILTDRLQLTLRALEDEKKKTDTLLYSVLPPSVANELRHKRPVPAKRYDNVTILFSGIVGFNAFCSKHASGEGAMKIVNLLNDLYTRFDTLTDSRKNPFVYKVETVGDKYMTVSGLPEPCIHHARSICHLALDMMEIAGQVQVDGESVQITIGIHTGEVVTGVIGQRMPRYCLFGNTVNLTSRTETTGEKGKINVSEYTYRCLMSPENSDPQFHLEHRGPVSMKGKKEPMQVWFLSRKNTGTEETKQDDD
notes: alpha subunit of soluble guanylyl cyclase GC1, human; beta subunit of soluble guanylyl cyclase GC1, human; alpha/beta heterodimer as bought; also called untreated GC1; source: bought: Enzo life sciences (ALX-201-177-C010), purified recombinant

Molecular target: the molecule itself
Test: non-reducing SDS-PAGE with Western blot; purified GC1 or Trx1, untreated, reduced (10 mM DTT) or oxidized (100 μM diamide), excess reagent removed; 12% SDS-PAGE under non-reducing conditions, blots probed with anti-GC1 α and β or anti-Trx1

Binding result, binds:
B1
B2
B3
B4
